Numbering of substitutions follows the chain as printed.
B1: Y-Aib-EGT-αMeF(2F)-TSD-4Pal-SI-αMeL-LD-Orn-K((2-[2-(2-Amino-ethoxy)-ethoxy]-acetyl)2-(γ-Glu)-(10-(4-carboxyphenoxy)decanoyl))AQ-Aib-EFI-(D-Glu)-αMeY-LIEGGK((2-[ … (peptide)
peptide: YXEGTXTSDXSIXLDXKAQXEFIXXLIEGGKSSGAPPPS
modifications: Aib2, αMeF(2F)6, 4Pal10, αMeL13, Orn16, K17(Z1), Aib20, D-Glu24, αMeY25, K31(Z1), C-term NH2; Z1=AEEA2-(γ-Glu)-(10-(4-carboxyphenoxy)decanoyl)
B2: Y-Aib-EGT-αMeF-TSD-4Pal-SI-αMeF-LD-Orn-K((2-[2-(2-Amino-ethoxy)-ethoxy]-acetyl)2-(γ-Glu)-CO-(CH2)12-CO2H)AQ-Aib-EFI-(D-Glu)-αMeY-LIEGGK((2-[2-(2-Amino-ethoxy)-e … (peptide)
peptide: B1 peptide
modifications: Aib2, αMeF6, 4Pal10, αMeF13, Orn16, K17(Z1), Aib20, D-Glu24, αMeY25, K31(Z1), C-term NH2; Z1=AEEA2-(γ-Glu)-CO-(CH2)12-CO2H
B3: Example 148 (peptide)
peptide: B1 peptide with F22X
modifications: Aib2, αMeF(2F)6, 4Pal10, αMeL13, Orn16, Aib20, ChA22, D-Glu24, αMeY25, K17 and K31: K(AEEA2-(γ-Glu)-CO-(CH2)12-CO2H), C-terminal NH2
B4: Example 147 (peptide)
peptide: B1 peptide with F22X
modifications: Aib2, αMeF(2F)6, 4Pal10, αMeL13, Orn16, Aib20, Bzt22, D-Glu24, αMeY25, K17 and K31: K(AEEA2-(γ-Glu)-CO-(CH2)12-CO2H), C-terminal NH2
B5: Example 150 (peptide)
peptide: B1 peptide with E21X
modifications: Aib2, αMeF(2F)6, 4Pal10, αMeL13, Orn16, Aib20, Orn21, D-Glu24, αMeY25, K17 and K31: K(AEEA2-(γ-Glu)-CO-(CH2)12-CO2H), C-terminal NH2
B6: Y-Aib-EGT-αMeF(2F)-TSD-4Pal-SI-αMeL-LD-Orn-K((2-[2-(2-Amino-ethoxy)-ethoxy]-acetyl)-(γ-Glu)-(2-[2-(2-Amino-ethoxy)-ethoxy]-acetyl)-CO-(CH2)12-CO2H)AQ-Aib-EFI-(D … (peptide)
peptide: B1 peptide
modifications: Aib2, αMeF(2F)6, 4Pal10, αMeL13, Orn16, K17(Z1), Aib20, D-Glu24, αMeY25, K31(Z1), C-term NH2; Z1=AEEA-(γ-Glu)-AEEA-CO-(CH2)12-CO2H
B7: Example 144 (peptide)
peptide: B1 peptide
modifications: Aib2, αMeF(2F)6, 4TAA10, αMeL13, Orn16, Aib20, D-Glu24, αMeY25, K17 and K31: K(AEEA2-(γ-Glu)-CO-(CH2)12-CO2H), C-terminal NH2
B8: Example 15 (peptide)
peptide: B1 peptide with E21K, K31P
modifications: Aib2, αMeF(2F)6, 4Pal10, αMeL13, Orn16, Aib20, D-Glu24, αMeY25, K17 and K21: K(AEEA2-(γ-Glu)-CO-(CH2)12-CO2H), C-terminal NH2
B9: Y-Aib-EGT-αMeF(2F)-TSD-4Pal-SI-αMeL-LD-Orn-K((εK)-(2-[2-(2-Amino-ethoxy)-ethoxy]-acetyl)2-(γ-Glu)-CO-(CH2)12-CO2H)AQ-Aib-EFI-(D-Glu)-αMeY-LIEGGK((εK)-(2-[2-(2-A … (peptide)
peptide: B1 peptide
modifications: Aib2, αMeF(2F)6, 4Pal10, αMeL13, Orn16, K17(Z1), Aib20, D-Glu24, αMeY25, K31(Z1), C-term NH2; Z1=(εK)-AEEA2-(γ-Glu)-CO-(CH2)12-CO2H
B10: Y-Aib-EGT-αMeF-TSD-4Pal-SI-αMeL-LD-Orn-K((2-[2-(2-Amino-ethoxy)-ethoxy]-acetyl)2-(γ-Glu)-CO-(CH2)12-CO2H)AQ-Aib-EFI-(D-Glu)-αMeF-LIEGGK((2-[2-(2-Amino-ethoxy)-e … (peptide)
peptide: B1 peptide
modifications: Aib2, αMeF6, 4Pal10, αMeL13, Orn16, K17(Z1), Aib20, D-Glu24, αMeF25, K31(Z1), C-term NH2; Z1=AEEA2-(γ-Glu)-CO-(CH2)12-CO2H
B11: Example 14 (peptide)
peptide: B1 peptide
modifications: Aib2, αMeF(2F)6, 4Pal10, αMeL13, Orn16, Aib20, D-Glu24, αMeY25, K17 and K31: K(AEEA-(γ-Glu)-CO-(CH2)10-CH3), C-terminal NH2
B12: Example 146 (peptide)
peptide: B1 peptide
modifications: Aib2, αMeF(2F)6, 3TA10, αMeL13, Orn16, Aib20, D-Glu24, αMeY25, K17 and K31: K(AEEA2-(γ-Glu)-CO-(CH2)12-CO2H), C-terminal NH2
B13: Y-Aib-EGT-αMeF-TSD-αMeF-SI-αMeL-LD-Orn-K((2-[2-(2-Amino-ethoxy)-ethoxy]-acetyl)2-(γ-Glu)-CO-(CH2)12-CO2H)AQ-Aib-EFI-(D-Glu)-αMeY-LIEGGK((2-[2-(2-Amino-ethoxy)-e … (peptide)
peptide: B1 peptide
modifications: Aib2, αMeF6, αMeF10, αMeL13, Orn16, K17(Z1), Aib20, D-Glu24, αMeY25, K31(Z1), C-term NH2; Z1=AEEA2-(γ-Glu)-CO-(CH2)12-CO2H
B14: Y-Aib-EGT-αMeF(2F)-TSD-4Pal-SI-αMeL-LD-Orn-K((2-[2-(2-Amino-ethoxy)-ethoxy]-acetyl)2-(γ-Glu)-CO-(CH2)10-CH3)AQ-Aib-EFI-(D-Glu)-αMeY-LIK((2-[2-(2-Amino-ethoxy)-e … (peptide)
peptide: B1 peptide with E28K, K31P
modifications: Aib2, αMeF(2F)6, 4Pal10, αMeL13, Orn16, K17(Z1), Aib20, D-Glu24, αMeY25, K28(Z1), C-term NH2; Z1=AEEA2-(γ-Glu)-CO-(CH2)10-CH3
B15: Y-Aib-EGT-αMeF(2F)-TSD-4Pal-SK((2-[2-(2-Amino-ethoxy)-ethoxy]-acetyl)2-(γ-Glu)-CO-(CH2)12-CO2H)-αMeL-LD-Orn-K((2-[2-(2-Amino-ethoxy)-ethoxy]-acetyl)2-(γ-Glu)-CO … (peptide)
peptide: B1 peptide with I12K, K31P
modifications: Aib2, αMeF(2F)6, 4Pal10, K12(Z1), αMeL13, Orn16, K17(Z1), Aib20, D-Glu24, αMeY25, C-term NH2; Z1=AEEA2-(γ-Glu)-CO-(CH2)12-CO2H
B16: Y-Aib-EGT-αMeF(2F)-TSD-4Pal-SI-αMeL-LD-Orn-K((2-[2-(2-Amino-ethoxy)-ethoxy]-acetyl)2-(γ-Glu)-CO-(CH2)12-CO2H)AQ-Aib-K((2-[2-(2-Amino-ethoxy)-ethoxy]-acetyl)2-(γ … (peptide)
peptide: B1 peptide with E21K, K31P
modifications: Aib2, αMeF(2F)6, 4Pal10, αMeL13, Orn16, K17(Z1), Aib20, K21(Z1), D-Glu24, αMeY25, C-term NH2; Z1=AEEA2-(γ-Glu)-CO-(CH2)12-CO2H
B17: Y-Aib-EGT-αMeF(2F)-TSD-4Pal-SI-αMeL-LD-Orn-K((2-[2-(2-Amino-ethoxy)-ethoxy]-acetyl)2-(γ-Glu)-CO-(CH2)12-CO2H)AQ-Aib-EFI-(D-Glu)-αMeY-LIEGK((2-[2-(2-Amino-ethoxy … (peptide)
peptide: B1 peptide with G30K, K31P
modifications: Aib2, αMeF(2F)6, 4Pal10, αMeL13, Orn16, K17(Z1), Aib20, D-Glu24, αMeY25, K30(Z1), C-term NH2; Z1=AEEA2-(γ-Glu)-CO-(CH2)12-CO2H
B18: Y-Aib-EGT-αMeF(2F)-TSD-4Pal-SI-αMeL-LD-Orn-K((2-[2-(2-Amino-ethoxy)-ethoxy]-acetyl)2-(γ-Glu)-CO-(CH2)12-CO2H)AQ-Aib-EFI-(D-Glu)-αMeY-LIK((2-[2-(2-Amino-ethoxy)- … (peptide)
peptide: B1 peptide with E28K, K31P
modifications: Aib2, αMeF(2F)6, 4Pal10, αMeL13, Orn16, K17(Z1), Aib20, D-Glu24, αMeY25, K28(Z1), C-term NH2; Z1=AEEA2-(γ-Glu)-CO-(CH2)12-CO2H

Legend:
human GIP receptor [1] = molecular target: T1, human GIP receptor (human, UniProt P48546 22-466); experiment: SPA competition vs [125I]-GIP, hGIPR membranes
T1 construct: whole, on cells; also called hGIPR; human glucose-dependent insulinotropic polypeptide receptor
T1 sequence (looked up): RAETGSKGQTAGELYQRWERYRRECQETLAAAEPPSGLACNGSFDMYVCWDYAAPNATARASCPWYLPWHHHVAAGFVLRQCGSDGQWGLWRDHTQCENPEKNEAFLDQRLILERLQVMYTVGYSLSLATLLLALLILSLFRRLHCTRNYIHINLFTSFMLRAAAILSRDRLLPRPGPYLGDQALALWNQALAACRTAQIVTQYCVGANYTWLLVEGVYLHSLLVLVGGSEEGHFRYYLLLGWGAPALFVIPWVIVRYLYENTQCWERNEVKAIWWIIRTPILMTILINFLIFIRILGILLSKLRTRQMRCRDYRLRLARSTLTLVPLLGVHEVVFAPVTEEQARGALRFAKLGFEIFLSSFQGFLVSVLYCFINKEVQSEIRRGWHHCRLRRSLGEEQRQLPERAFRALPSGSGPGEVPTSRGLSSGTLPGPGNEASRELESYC
Experimental: The binding buffer contains 25 mM HEPES, pH 7.4, 2.5 mM CaCl₂, 1 mM MgCl₂, 0.1% (w/v) bacitracin, 0.003% (w/v) TWEEN®-20, and Roche Complete™ Protease Inhibitors without EDTA. […] Plates are sealed and mixed on a plate shaker (setting 6) for 1 minute and read with a PerkinElmer Trilux MicroBeta® scintillation counter after 2.5 to 12 hours of incubation/settling time at room temperature.
(§1) Data are analyzed using four-parameter (curve maximum, curve minimum, IC₅₀, Hill slope) nonlinear regression routines (Genedata Screener, version 12.0.4, Genedata AG, Basal, Switzerland). […] Values for Kᵢ are reported as the geometric mean, with error expressed as the standard error of the mean (SEM) and n is equal to the number of independent replicates (determined in assays performed on different days). Geometric Means are calculated as follows: […]

human GLP-1 receptor [2] = molecular target: T2, human GLP-1 receptor (human, UniProt P43220 24-463); experiment: SPA competition vs [125I]-GLP-1, hGLP-1R membranes
T2 construct: whole, on cells; also called hGLP-1R; human glucagon-like peptide-1 receptor
Experimental: The binding buffer contains 25 mM HEPES, pH 7.4, 2.5 mM CaCl₂, 1 mM MgCl₂, 0.1% (w/v) bacitracin, 0.003% (w/v) TWEEN®-20, and Roche Complete™ Protease Inhibitors without EDTA.
as §1

human glucagon receptor = human glucagon receptor (human, UniProt P47871 26-477); experiment: cell-based or functional assay
human GLP-1 receptor [3] = molecular target: human GLP-1 receptor (human, UniProt P43220 24-463); experiment: cell-based or functional assay
human GIP receptor [4] = molecular target: T3, human GIP receptor (human, UniProt P48546 22-466); experiment: cell-based or functional assay
T3 sequence (looked up): T1 sequence (looked up)

Binder	Ki (human GIP receptor [1]) [nM]	Ki (human GLP-1 receptor [2]) [nM]	EC50, cAMP (human glucagon receptor) [nM]	EC50, cAMP (human GLP-1 receptor [3]) [nM]	Emax, cAMP (human GLP-1 receptor [3]) [%]	EC50, cAMP (human GIP receptor [4]) [nM]	Emax, cAMP (human GIP receptor [4]) [%]
B1	0.0446	–	–	–	–	–	–
B2	0.0683	6.1	–	–	–	–	–
B3	–	–	> 9950	1.77	94.5	0.0209	–
B4	–	–	> 9950	0.338	93.5	0.0229	–
B5	–	–	> 9950	0.455	–	0.0268	–
B6	0.092	2.5	–	–	–	–	–
B7	–	–	> 9950	3.47	–	0.0193	90
B8	–	–	> 9950	0.995	–	0.0133	–
B9	0.171	2.22	–	–	–	–	–
B10	0.0621	3.67	–	–	–	–	–
B11	–	–	> 9950	0.0884	–	0.00802	–
B12	–	–	> 9950	0.688	–	0.0198	76.5
B13	0.0891	6.9	–	–	–	–	–
B14	0.0415	0.268	–	–	–	–	–
B15	0.0972	3.01	–	–	–	–	–
B16	0.0629	2.11	–	–	–	–	–
B17	0.0769	8.41	–	–	–	–	–
B18	0.0649	3.18	–	–	–	–	–

Reference: patent publication US20230265151A1, “GIP/GLP1 CO-AGONIST COMPOUNDS” (priority 2020, published 2023)
